From patent US20180050011A1
Blank lines part the entries; values can stand above or below the molecule they belong to.

Experiments:
S100A9 (human) = biological target: T1, S100A9 (human) (UniProt P06702); assay: cell-based or functional assay
T1 sequence (looked up): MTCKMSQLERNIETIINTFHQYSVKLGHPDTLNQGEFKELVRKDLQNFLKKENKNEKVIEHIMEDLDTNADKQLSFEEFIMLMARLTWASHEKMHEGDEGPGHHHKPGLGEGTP

[1] = biological target: apoptosis-associated speck-like protein containing a caspase-recruitment domain (ASC) (human) (UniProt Q9ULZ3); assay: cell-based or functional assay
apoptosis-associated speck-like protein containing a caspase-recruitment domain (ASC) (human), sequence (Q9ULZ3 whole entry, the tested form may be a part): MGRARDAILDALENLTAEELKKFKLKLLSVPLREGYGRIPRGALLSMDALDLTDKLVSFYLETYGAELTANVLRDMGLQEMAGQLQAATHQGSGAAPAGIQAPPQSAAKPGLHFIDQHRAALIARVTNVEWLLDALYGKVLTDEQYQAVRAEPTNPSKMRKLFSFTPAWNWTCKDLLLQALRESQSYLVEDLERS

colony-forming capacity of MDS BM-MNC (S100A9 (human)): < 6.6 fold
reduction of the fraction of pyroptotic cells, CD33+ cells (MDS BM-MNC in autologous BM plasma) (S100A9 (human)): 68%
reduction of the fraction of pyroptotic cells, CD71+ cells (MDS BM-MNC in autologous BM plasma) (S100A9 (human)): 64%
reduction of the fraction of pyroptotic cells, progenitor cells (MDS BM-MNC in autologous BM plasma) (S100A9 (human)): 23%
reduction of the fraction of pyroptotic cells, stem cells (MDS BM-MNC in autologous BM plasma) (S100A9 (human)): 44%
Molecule: S100A9 high-affinity chimeric (CD33-IgG1) decoy receptor (from UniProt P20138 18-259) (Fc fusion)

NLRP3 activation, as measured by ASC oligomerization (flow cytometry, U2AF1-S34F cells transfected with POP-1) [1]: 40 % reduction
B1: pyrin domain-only protein (POP)-1 (protein, UniProt Q8WXC3 1-89, looked up)
chain: MGTKREAILKVLENLTPEELKKFKMKLGTVPLREGFERIPRGALGQLDIVDLTDKLVASYYEDYAAELVVAVLRDMRMLEEAARLQRAA
